Data reported in publication PMC8617272.

Molecular target: AdeB from Acinetobacter baumannii (RND transporter subunit of the AdeABC efflux pump) (Acinetobacter baumannii AYE)
Assay: native gel or EMSA + other: negative stain electron microscopy; AdeB reconstituted into Salipro Nanodiscs

In the case of “AdeB from Acinetobacter baumannii (RND transporter subunit of the AdeABC efflux pump) (natural protein)”, the stoichiometry N is reported as 3.
